Measured values: patent EP1137786B1

Columns and labels:
CCR5 [1] = biological target: CCR5 (UniProt P51681); assay: cell-based or functional assay
CXCR4 = CXCR4 (UniProt P61073); assay: cell-based or functional assay
CCR5 [2] = biological target: CCR5 (UniProt P51681); assay: flow cytometry on L1.2/R5 cells

CCR5, sequence (P51681 whole entry): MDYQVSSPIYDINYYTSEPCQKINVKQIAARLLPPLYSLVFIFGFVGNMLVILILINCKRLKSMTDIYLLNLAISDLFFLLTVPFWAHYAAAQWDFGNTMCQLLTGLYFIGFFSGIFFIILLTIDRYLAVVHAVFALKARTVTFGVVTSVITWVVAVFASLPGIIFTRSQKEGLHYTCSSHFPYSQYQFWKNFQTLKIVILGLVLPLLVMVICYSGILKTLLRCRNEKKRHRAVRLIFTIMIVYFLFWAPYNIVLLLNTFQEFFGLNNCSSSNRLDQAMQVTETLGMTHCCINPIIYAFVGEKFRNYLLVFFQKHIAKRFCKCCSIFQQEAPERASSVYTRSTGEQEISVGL
CXCR4, sequence (P61073 whole entry): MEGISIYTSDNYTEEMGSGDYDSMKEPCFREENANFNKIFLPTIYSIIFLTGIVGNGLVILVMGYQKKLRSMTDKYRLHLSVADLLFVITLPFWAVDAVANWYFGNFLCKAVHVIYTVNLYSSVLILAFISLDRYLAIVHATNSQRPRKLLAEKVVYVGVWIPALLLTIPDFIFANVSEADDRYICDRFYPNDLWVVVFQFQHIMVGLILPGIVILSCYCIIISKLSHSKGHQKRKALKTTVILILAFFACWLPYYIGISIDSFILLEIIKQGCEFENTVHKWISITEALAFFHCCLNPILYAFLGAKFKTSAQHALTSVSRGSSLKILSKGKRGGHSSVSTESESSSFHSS

Row | Substance | ID90, neutralization of HIV 89.6 on U373/CD4/CCR5 cells (CCR5 [1]) [µg/mL] | ID90, neutralization of HIV ADA on U373/CD4/CCR5 cells (CCR5 [1]) [µg/mL] | ID90, neutralization of HIV BaL on U373/CD4/CCR5 cells (CCR5 [1]) [µg/mL] | ID90, neutralization of HIV 89.6 on U373/CD4/CXCR4 cells (CXCR4) [µg/mL] | ID90, neutralization of HIV 2005 on U373/CD4/CXCR4 cells (CXCR4) [µg/mL] | ID90, neutralization of HIV 2044 on U373/CD4/CXCR4 cells (CXCR4) [µg/mL] | fold higher concentration needed to approach saturation binding, against FLSC (CCR5 [2]) [fold]
1 | gp120-CD4-IgG1 chimeric polypeptide (from UniProt P01730 26-208) (Fc fusion) | 3.56 | 4.58 | 3.1 | > 10 | > 10 | > 10 | –
2 | truncated single chain (TcSC) gp120-CD4 chimeric polypeptide (from UniProt P01730 26-208) | – | – | – | – | – | – | 10
